In publication PMC3669411, “Characterization of Flavin-Based Fluorescent Proteins: An Emerging Class of Fluorescent Reporters” (PLoS ONE, 2013):
Blank lines part the entries; values can stand above or below the compound they belong to.

Legend:
iLOV = target: T1, iLOV (Arabidopsis thaliana, UniProt P93025, S394T/S409G/C426A/I452T/F470L/M475V); assay: absorbance at […] nm vs Bradford total protein, as purified; format: binding; details: FMN-bound fraction of purified protein; noncovalent
T1 construct: gene PHOT2; primers give start MIEKNFVI, end LDGSDHV
T1 sequence (P93025 387-496 S394T/S409G/C426A/I452T/F470L/M475V): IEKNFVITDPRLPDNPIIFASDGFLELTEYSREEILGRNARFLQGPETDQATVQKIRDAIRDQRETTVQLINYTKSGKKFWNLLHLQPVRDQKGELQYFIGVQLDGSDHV

[1] = target: EcFbFP, FMN-based fluorescent protein derived from the N-terminal LOV domain of Bacillus subtilis YTVA (E. coli codon-optimized gene) (Bacillus subtilis) (UniProt O34627); assay: SEC; Superdex 200 gel filtration on AKTA FPLC, calibrated with globular protein standards; 0.15 M NaCl (methods name phosphate buffered saline); oligomeric state = estimated mass divided by calculated monomer mass (110 Da per amino acid); mean of duplicates
[2] = target: EcFbFP, FMN-based fluorescent protein derived from the N-terminal LOV domain of Bacillus subtilis YTVA (E. coli codon-optimized gene) (Bacillus subtilis) (UniProt O34627); assay: SEC; Superdex 200 gel filtration on AKTA FPLC, calibrated with globular protein standards; 1 M NaCl (20 mM Tris hydrochloride, 1 M NaCl, pH 8.0); oligomeric state = estimated mass divided by calculated monomer mass (110 Da per amino acid); mean of duplicates
[3] = target: EcFbFP, FMN-based fluorescent protein derived from the N-terminal LOV domain of Bacillus subtilis YTVA (E. coli codon-optimized gene) (Bacillus subtilis) (UniProt O34627); assay: SEC; Superdex 200 gel filtration on AKTA FPLC, calibrated with globular protein standards; 0.5 M NaCl; oligomeric state = estimated mass divided by calculated monomer mass (110 Da per amino acid); mean of duplicates
[4] = target: PpFbFP, FMN-based fluorescent protein from Pseudomonas putida (Pseudomonas putida) (UniProt Q88JB0); assay: SEC; Superdex 200 gel filtration on AKTA FPLC, calibrated with globular protein standards; 0.15 M NaCl (methods name phosphate buffered saline); oligomeric state = estimated mass divided by calculated monomer mass (110 Da per amino acid); mean of duplicates
[5] = target: PpFbFP, FMN-based fluorescent protein from Pseudomonas putida (Pseudomonas putida) (UniProt Q88JB0); assay: SEC; Superdex 200 gel filtration on AKTA FPLC, calibrated with globular protein standards; 1 M NaCl (20 mM Tris hydrochloride, 1 M NaCl, pH 8.0); oligomeric state = estimated mass divided by calculated monomer mass (110 Da per amino acid); mean of duplicates
[6] = target: PpFbFP, FMN-based fluorescent protein from Pseudomonas putida (Pseudomonas putida) (UniProt Q88JB0); assay: SEC; Superdex 200 gel filtration on AKTA FPLC, calibrated with globular protein standards; 0.5 M NaCl; oligomeric state = estimated mass divided by calculated monomer mass (110 Da per amino acid); mean of duplicates

Fholo (iLOV): 0.39±0.01
Compound: Cc1cc2nc3c(=O)[nH]c(=O)nc-3n(C[C@H](O)[C@H](O)[C@H](O)COP(=O)(O)O)c2cc1C [FMN]

stoichiometry N [1]: 1.9
stoichiometry N [2]: 1.6
stoichiometry N [3]: 1.7
Compound: EcFbFP, FMN-based fluorescent protein derived from the N-terminal LOV domain of Bacillus subtilis YTVA (E. coli codon-optimized gene) (from UniProt O34627 20-147) (domain or fragment)

stoichiometry N [4]: 1.9
stoichiometry N [5]: 1.5
stoichiometry N [6]: 1.7
Compound: PpFbFP, FMN-based fluorescent protein from Pseudomonas putida (from UniProt Q88JB0 1-151) (natural protein)
